Biological target: Histone H4 N-terminal peptide, biotinylated (1–23) (UniProt P62805 2-24, biotin (position not given))
Assay: pull-down

SATICRVCQKPGDLVMCNQCEFCFHLDCHLPALQDVPGEEWSCSLCHVLP (domain or fragment, UniProt Q13263 624-673, looked up) [GST-tagged KAP1 PHD (residues 624–673)]
binding result: binds
